Measured values as given in the DeepSol protein solubility set.

experiment: soluble on expression in E. coli; label from the status in PepcDB or PDB records

Sequence | soluble on expression in E. coli
MSLRLKTILLTTMATGSFLCEPVAAMCIEPPATPDMGWFLKKKKKSNPQDSIKVKNEYEKLTGSDSVVRRGMFNVYQKKNDYYFEIPSTLLERDMLVVNKLQRVPAELNEAGVNRGTNYENQMIRFELDKSANKLLIRQSRPLPISPSEDAISQSVKDNYISPLIAGFKVEAYNNDSTSILIKVNDIYDGTETSINNVFTNINLGTSAIKNLSRILSIKSFDNNVVATSELTTRVTEGTTTIYVTVEVSSSILLLPEVPMTGRLDNPRVGYFTNPLTNFSDGQQRVNKKQFITRWRLEPRPEDRAAYLRGELVEPRKPIVFYIENSTPYRWRKYIKQGIEDWQVAFERAGFKNAIIAKDITEDMEVDMDDVNYSVLTYAASTKANAMGPSILDPRSGEILEADIMWWHNVLSMLQEWITVQTGVVRPEAREGHHHHHH | not soluble
MSLKRSIHVQAFVYNEKKDEILIVRNRNLAWTFPGGHVETDQTMEEALASKVKEQTNIDIEIESILHCKERRATWEHVCTFVFRAKPVGEMATFSNDDNVFRVKWIPIPLADDLLPIDQLSLNELVRSEGVLYENEGHHHHHH | soluble
MITVVIASRLREDRLDYLTAMHASLTRQSVPWEAVIALDGASPDRLPRQLAQDPRVDTLVLPRPVGAACARNLALTQVRTRYVNWADDDDEFTDDAMSVRLETLESTGVGWCAGWSEDQFRDGSTRLWRCPTPPGRHEAGDVWTFWKSPADTIPIGPTTILARTDLVRAAPMGGLVQGEDYCAALGVTALAPGILLPLPVYRYRKWGGQMTAQDGYDQLETAAREHAWAYGRSLRAVLRGGEDLVHVLEHHHHHH | not soluble
GAMQGEVSKAASADSTTEGTPADGFTVLSTKSLFLGQKLQVVQADIASIDSDAVVHPTNTDFYIGGEVGNTLEKKGGKEFVEAVLELRKKNGPLEVAGAAVSAGHGLPAKFVIHCNSPVWGADKCEELLEKTVKNCLALADDKKLKSIAFPSIGSGRNGFPKQTAAQLILKAISSYFVSTMSSSIKTVYFVLFDSESIGIYVQEMAKLDAN | soluble
MATTLPVQRHPRSLFPEFSELFAAFPSFAGLRPTFDTRLMRLEDEMKEGRYEVRAELPGVDPDKDVDIMVRDGQLTIKAERTEQKDFDGRSEFAYGSFVRTVSLPVGADEDDIKATYDKGILTVSVAVSEGKPTEKHIQIRSTN | soluble
MAAYKDLTKEELLELKSGLQAQFEEVKARGLKLDMSRGKPAAAQLNLSMEMMNILNSGTDLVCEDGVDCRNYGGLDGIAEAKQLLADMMEVPKDNVIVFGNSSLNVMYDTVARAMTHGIMGSTPWCKLDKVKFLCPVPGYDRHFAITEHFGIEMINVPMTATGPDMDLVEKLVSEDPAIKGIWCVPKYSNPQGITYSDETVYRFANLKPAAEDFRIFWDNAYCVHHLYEDKQDYLLEILMECKKAGNQDMVYKFSSTSKISFPGSGIAAIAASDANLADIRNMMKVQTIGHDKVNQLRHVRFFKDIHGIVEHMKKHADIMRPKFETVINTLERELGGLEIGSWIAPRGGYFISFDAMEGCAKAIVAKAKEAGLVMTGAGATFPYGKDPKDSNIRIAPSYPTPEELAVAAEIFVLSVKLVSIDKLLKNL | not soluble
AHHHHHHGSGLFDKLKKAEVQKKVPSSLKSRIKEEPSEVELVPVEEEVLAKELVKPKVVYIKKIVISTHADLKRVSDELKSGNIVIVELTPLEQKPELLKKIAEQLMTTASIIGGDYAKICGSPLKVILTPPEIKIAKE | not soluble
MSLNSMELLIIKERRIDYDGSAIRSHWAYRNFGILGDSLVVFRGKCNVKVEEMVDIEDLRLRKEIKGDDMVHYILELFWHPDILLASSLQKLLIARLVELLWNYGIEASRRGDDIYVNGRKLSISIATVSPVSIKIHIGLNVKTVGVPPGVDAIGLEELGIDPTEFMERSAKALVEEIEKVRKDSLKVRWVTEGHHHHHH | soluble
MSAAGDLRRRARLSRLVSFSASHRLHSPSLSDEENLRVFGKCNNPNGHGHNYKVVVTVHGEIDPVTGMVMNLTDLKEYMEEAIMKPLDHKNLDLDVPYFADAVSTTENVAVYIWESLQKLLPVGALYKVKVFETDNNIVVYKGE | soluble
MSLKFAVLVFPGSNCDRDMYNAAIKSGVDAAYVDYRETTLDGFDGVLIPGGFSFGDYLRSGAMASVAPIIKEVKRFAKEGKPVLGVCNGFQILTEIGLLPGALLHNDSHLFISRNETLKITNNQTPFTHLYVKNENVVYPVAHGEGHYYCTDEIYRELNDNNQIILKYTNNPNGSYEDIAGIVNKEGNVCGMMPHPERALETLLGTNSGVKLFESMVKSWREQNEGHHHHHH | soluble
MEKSIKIGFIGLGAMGKPMAINLLKEGVTVYAFDLMEANVAAVVAQGAQACENNQKVAAASDIIFTSLPNAGIVETVMNGPGGVLSACKAGTVIVDMSSVSPSSTLKMAKVAAEKGIDYVDAPVSGGTKGAEAGTLTIMVGASEAVFEKIQPVLSVIGKDIYHVGDTGAGDAVKIVNNLLLGCNMASLAEALVLGVKCGLKPETMQEIIGKSSGRSYAMEAKMEKFIMSGDFAGGFAMDLQHKDLGLALEAGKEGNVPLPMTAMATQIFEGGRAMGLGREDMSAVIKVWEQMTGVSVSGGQ | soluble
MGGSHHHHHHGMASALAPKQDPKPKFQEGERVLCFHGPLLYEAKCVKVAIKDKQVKYFIHYSGWNKNWDEWVPESRVLKYVDTNLQKQRELQKANQEQYAEGKMRGAAPGKKTSGLQQKNVEVKTKKNKQKTPGNGDGGSTSETPQPPRKKRARVDPTVENEETFMNRVEVKVKIPEELKPWLVDDWDLITRQKQLFYLPAKKNVDSILEDYANYKKSRGNTDNKEYAVNEVVAGIKEYFNVMLGTQLLYKFERPQYAEILADHPDAPMSQVYGAPHLLRLFVRIGAMLAYTPLDEKSLALLLNYLHDFLKYLAKNSATLFSASDYEVAPPEYHRKAV | not soluble
MGSDKIHHHHHHMPYERKIINDPVFGFINIPKGLLYDIVRHPLLQRLTRIKQVGLSSVVYPGAQHTRFQHSLGAFYLMSEAITQLTSKGNFIFDSEAEAVQAAILLHDIGHGPFSHVLEDTIVQGVSHEEISLMLMERMNKEMNGQLSLAIQIFKDEYPKRFLHQLVSGQLDMDRLDYLRRDSFYTGVTEGNIGSARIIKMLDVADDRLVIESKGIYSIENFLTARRLMYWQVYLHKTSVAYERMLISTLLRAKELASQGVELFASPALHFFLYNDINHTEFHNNPDCLENFIQLDDNDIWTALKVWSNHPDKVLSTLSLGMINRNIFKVENSAEPIGEDRIKELTLQISQQLGITLSEANYFVSTPSIEKNMYDPADDSIDIIYKDGTIKNIAEASDMLNISLLSKKVKKYYLCYQRLHR | not soluble
MKVIDLSQTFENNMSQFPGTPKIQLKAVTSVEESGYQVTDFHSVVHVGTHCDAPAHFISGATTIDQLPLDQFVGEAVLIDVTHIQERKLPKTVLHNTDIKEGDIVIFHSNLSTKWNTEAYEKEAFYLSEELAKELVRLKVKSIGLDFISPDEVTTETSPIHHILLGNDIYLIENLTNLDAIEEKRFFFSAAPLKIKNSDGAFARAFAVIFLEHHHHHH | soluble
MGSDKIHHHHHHMIERKRYVTMKGHRGGLAVYVNERCSVDEFLDDLELTLADKSVENGRAVPITFFFGRRYVDEGVVTAVESIVARHDSFSFNGYDSECLTKDEAKALYGERTFHYFGGTARSGHVVDVEGSIVVIGDINPGAVVHATGSIYCLGALRGTVHAGKGGNHQAVIAASVLQPKWISISDFVYEDPDDAPIQALDMGCAFVGETGVEFSRLQTVPLARMDQFAIDSERG | not soluble
MNSDAEMNTEDGGSSPEEFGEADCFSEEEDEEIVLDTSDNDTSYAKEDKKSENEVLDNDLLEAEMNTTIADVQAVLQVDPGVCRILLHKYKWNKESLLERLYEHPDTIAFLIDAQVIPRQQEVIPAGDAECDICCSMDELSGLSCNHRACAECWQAYLTNKIVSDAQSEIECMAPNCKLLIEDEKVLAYIKDPTIIAKYRKMMVASYIEINALLKWCPGVDCGRTVKVSHGEPRLVVCTCGSRFCFSCGQDWHEPVNCRLLKLWMKKCNDDSETSNWINSNTKECPKCMATIEKNGGCNQITCKNTGCKFQFCWMCLGPWTVHANAWYKCNKFDDEASQTARTAQELYRANLTRYLFYYNRYMGHLQSLRLEGKLNKTVKAKMDQMQNLSMSWIDVQFLRKAVDVLSECRNTLMFTYIFAFYLKRDNNSMIFESNQKDLEMETEQLSGLLERDLENEDLLTLKQKVQDTFRYVEHRRKVLLDHCAEGTEQDIWQYNE | not soluble
MGSDKIHHHHHHMGQPFVHPTGVTIYNPEKCFNGYTIMQAPGLGCVLIDMNGNVVRVFKDLHGFPNKLLPGGYVMGSRGRRNGKFGYQDQIDLVQVDWDGQVVWEFAKKEYIEDEGEKPQWMARQHHDYQREGNPVGYYVPGMECKTNSGNTLILSHQNCYHKKISDKQLLDDVIIEVDWDGNIVWEWHAVDHFHEYGFSAAAKLALYRNPNMHEAGGGMGDWMHINSASVLGPNKWYDKGDERFHPDNIIWDAREANIMAIISKETGKVVWKMGPDFAQDKKLRKIGQIIGQHHVHMIPQGLPGAGNILIFDNGGWAGYGAPNNVSKDGTKVDMADRSRVLELNPVTMEVVWQLKASELMDYGQPGISDYRFYSPLTSAAQRLPNGNTLITEGCGGRFFEVTRMKEVVWEFISPFNANPATIYYRAYRYPYSYVPQLPEPKETPVPMLDIRKFRVPGAASCEVQHVVGVEGTIGYPAMQQACVAAADQDLSLKDDDDDDLFSRSF | not soluble
MGSDKIHHHHHHMFDWNDLRFFLELQRSGRLLTAAKRLNTTHSTVARHIESIEQSLGTALFVQHAQGYELTPSGQALLKHAEAMENVALLAQEEITQAITPLGKIRLGVTEGIGIMFFTPRMNALFERYPGLEVELVAVPRFVSILNREAEISIHLERPNADLLITRKLTDYRLALYASQAYLDRAPPLRHREDLARHSWIGYVDDLLFSQELLFLNSFCRVPNVVFRSTSVIAQQAAARAGLGIAVLPNYMARHDPTLVRVLPGETIQRSYWICTRRELHKSVRLRVVWDYLLALCAAEQSELLAE | not soluble
MTNLFLCSLRFQFVVVCTRYDQSVGFSTEEHNIVEDASGFVTQHSSGSTLNESSRSCLQLVIVSQRNLEVYLGRDNVETLRKIGEANRGEFSKDFSVWCKTVFESMSNAYVSSLETEQSNVTSRVTRNIRPRTNEENRMQMEELQTAMQVERSVAASSSLSSSFDWNAFLRDRCGLSEEDVAYCLPKLSFIGMIDLSGVTTEFLLKCGIDSPSLRLRIMLGIRQLLAK | not soluble
MDQKTRIVAAVIKGVKLPPRFRLRLLKEDPVRLELSLTPAYGKDPVTVGLVESLDLVARRDREGRIPRDLQGTWDWTVRHGKVSTGGWNPYLKEALQTMFETGLPAIVFEELTGEEYHPVDGTRHVR | not soluble
MLSEWQNHKAQLRNYVYKRVDDASAVDDILQDVYIKASSNLHQLKSKGSLKGWLYKIAYNTIMDFYRDKLPYDELPEDLVAEDEDAVEESRKEIAECMRPLIDELPDKYSVPLRLAELDGIPQQEIADKLGLSLSGAKSRIQRGRVKFRENLMTCCDFEINDGGMVTGYTPKKTNCSSPKR | not soluble
MCMGTRSKRSERGRCRMHLERCVCPAIPRYDLTTRVVLVMHHREYPKPTATGPLALAALPNSELRIHGERDSLLDLGDLATPERRTLLLYPGDDVPVLTRELLERDRRPVTLVVPDGTWRQASRMGRRLPGLDHAEMVRLPEGLPTEWGIRRENHPQGLATFEAIARALGIIESPAVQTGLEELFRLMVRRTLSAGGRAILEHHHHHH | soluble
